US10385116 (OMNIOX, dated 2019)

Tests used:
[1] = molecular target: the molecule itself; test: analytical size exclusion chromatography (Superdex 200 10/300 GL); self-association into a homotrimer
[2] = molecular target: the molecule itself; test: size exclusion chromatography; self-association of H-NOX+foldon monomers into a homotrimer

Protein	binding result [1]	binding result [2]
Thermoanaerobacter tengcongensis L144F H-NOX-foldon-His6 fusion protein (monomer unit) (other, heme (porphyrin IX) cofactor bound non-covalently (so in the source), 229 amino acids, 26,677 AMU as a monomer; Three of these chains associate through the foldon domain to form the about 80 kDa H-NOX trimer; It is entered as the monomer unit so that the self-association can be written as a pair; also called H-NOX-foldon fusion protein; H-NOX-foldon protein) MKGTIVGTWIKTLRDLYGNDVVDESLKSVGWEPDRVITPLEDIDDDEVRRIFAKVSEKTGKNVNEIWREVGRQNIKTFSEWFPSYFAGRRLVNFLMMMDEVHLQLTKMIKGATPPRLIAKPVAKDAIEMEYVSKRKMYDYFLGFIEGSSKFFKEEISVEEVERGEKDGFSRLKVRIKFKNPVFEYKKNLEGSGGYIPEAPRDGQAYVRKDGEWVLLSTFLRGSHHHHHH	binds	–
H-NOX variant L144F-foldon fusion protein with no His6 tag at the C-terminus (monomer unit of the trimer) (other, non-covalently bound heme cofactor is not carried by the letters, No His6 tag; also called H-NOX+foldon; L144F H-NOX trimer without His6) MKGTIVGTWIKTLRDLYGNDVVDESLKSVGWEPDRVITPLEDIDDDEVRRIFAKVSEKTGKNVNEIWREVGRQNIKTFSEWFPSYFAGRRLVNFLMMMDEVHLQLTKMIKGATPPRLIAKPVAKDAIEMEYVSKRKMYDYFLGFIEGSSKFFKEEISVEEVERGEKDGFSRLKVRIKFKNPVFEYKKNLEGSGGYIPEAPRDGQAYVRKDGEWVLLSTFL	–	binds
